Values quoted from earlier work, collected in patent US10927175B2, “Method for treating cancer” (Sun Jet Biotechnology Inc., priority 2017, dated 2021).

Tested on: metastatic duodenal adenocarcinoma
Conditions: gradually decreasing prednisolone and replacing tacrolimus with sirolimus after nivolumab

nivolumab
allograft outcome: preserved | tumor outcome: regressed
